The target in test [1] is Human GIP receptor (human) (UniProt P48546). The test is described as follows: radioligand binding.
The target of test [2] is Mouse GIP receptor (mouse) (UniProt Q0P543). The test is described as follows: radioligand binding.
For test [3], the target named is Human GIP receptor (human) (UniProt P48546).
Test [4] has as its target Mouse GIP receptor (mouse) (UniProt Q0P543).
Test [5] has as its target Rat GIP receptor (rat) (UniProt P43219).
Test [6] shares this target. The source holds these as a separate data set.
The target in a further test is GIP receptor. The note with it: read-out: affinity (IC50); ref Deacon et al., 2006; cited from earlier work.
The subject of a further test is pigs. The note with it: ref Deacon et al., 2006; cited from earlier work.
A further test has as its system perfused rat pancreas. The note with it: 100 nM (Pro3)GIP, 1 nM GIP, 10 mM arginine, 7 mM glucose, radioimmunoassay, N=6-9.
Test [7] has as its system perfused pancreata from GIPR KO mice. As to conditions: 100 nM mouse (Pro3)GIP, 1 nM mouse GIP, 10 mM arginine, 7 mM glucose, N=3.
In test [8] the target is Rat GIP receptor (rat) (UniProt P43219). As to the kind of experiment: radioligand binding.
Test [9] deals with T1, Mouse GIP receptor (mouse, UniProt Q0P543 19-460).
T1 sequence: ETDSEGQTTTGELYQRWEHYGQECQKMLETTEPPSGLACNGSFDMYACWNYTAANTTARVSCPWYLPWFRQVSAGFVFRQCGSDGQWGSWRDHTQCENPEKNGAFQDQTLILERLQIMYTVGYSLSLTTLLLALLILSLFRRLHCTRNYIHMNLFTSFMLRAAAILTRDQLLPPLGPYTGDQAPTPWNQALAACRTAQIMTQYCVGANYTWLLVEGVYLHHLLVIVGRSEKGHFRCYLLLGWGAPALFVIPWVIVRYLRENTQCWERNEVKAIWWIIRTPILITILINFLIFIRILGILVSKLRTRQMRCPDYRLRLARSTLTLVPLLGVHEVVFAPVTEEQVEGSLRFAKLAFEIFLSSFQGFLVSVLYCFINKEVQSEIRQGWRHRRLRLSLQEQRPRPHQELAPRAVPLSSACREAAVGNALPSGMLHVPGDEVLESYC
The test is described as follows: cell-based or functional assay.

Test [10] deals with T2, Rat GIP receptor (rat, UniProt P43219 19-455).
T2 sequence: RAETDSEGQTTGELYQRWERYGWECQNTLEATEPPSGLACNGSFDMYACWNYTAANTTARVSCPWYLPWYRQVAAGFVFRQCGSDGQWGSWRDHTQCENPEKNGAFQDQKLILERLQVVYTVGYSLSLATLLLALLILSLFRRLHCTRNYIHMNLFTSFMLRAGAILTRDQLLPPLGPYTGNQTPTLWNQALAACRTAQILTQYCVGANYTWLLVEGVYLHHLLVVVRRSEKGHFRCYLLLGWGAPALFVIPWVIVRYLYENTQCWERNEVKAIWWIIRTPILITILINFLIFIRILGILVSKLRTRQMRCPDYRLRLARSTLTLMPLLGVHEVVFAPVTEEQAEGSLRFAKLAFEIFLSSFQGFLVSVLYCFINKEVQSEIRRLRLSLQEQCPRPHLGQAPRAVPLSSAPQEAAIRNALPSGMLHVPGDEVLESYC
The test is described as follows: cell-based or functional assay.

Test [11] has as its target T3, Human GIP receptor (human, UniProt P48546 22-466).
T3 sequence: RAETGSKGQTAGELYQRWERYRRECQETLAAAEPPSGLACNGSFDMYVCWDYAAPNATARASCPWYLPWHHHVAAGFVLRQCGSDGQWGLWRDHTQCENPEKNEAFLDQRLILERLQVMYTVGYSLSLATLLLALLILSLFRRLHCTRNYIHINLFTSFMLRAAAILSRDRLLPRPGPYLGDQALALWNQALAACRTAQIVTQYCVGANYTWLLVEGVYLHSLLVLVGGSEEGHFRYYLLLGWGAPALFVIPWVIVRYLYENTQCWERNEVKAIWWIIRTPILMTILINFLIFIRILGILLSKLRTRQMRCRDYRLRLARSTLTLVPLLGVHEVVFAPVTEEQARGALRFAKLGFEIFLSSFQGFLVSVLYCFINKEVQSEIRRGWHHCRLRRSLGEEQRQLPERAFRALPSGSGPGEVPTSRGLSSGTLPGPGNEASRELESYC
As to the kind of experiment: cell-based or functional assay.

The target in test [12] is T2, Rat GIP receptor. The test is described as follows: radioligand binding.
For test [13], the target named is T3, Human GIP receptor. As to the kind of experiment: radioligand binding.
In test [14] the target is T1, Mouse GIP receptor. As to the kind of experiment: radioligand binding.

In the case of Human (Pro3)GIP (peptide), the logIC50 in [1] is -8; in [2], -7.4. Also, the results for the EC50 of cAMP accumulation in transfected COS-7 cells in test [3] and in test [4] were 4.7 nM and 92 nM, respectively. This molecule also registered an Emax of cAMP accumulation in transfected COS-7 cells in test [4] of 71.

Regarding “Rat (Pro3)GIP (from UniProt Q06145 44-85) (peptide)”, the Emax of cAMP accumulation, normalised to rat GIP on the rat receptor (Figure 2B) in the test with Rat GIP receptor (rat) [5] stood at 50%. In [2], this molecule came in with a logIC50 of -8.1. For the same molecule, the EC50 of cAMP accumulation in transfected COS-7 cells amounted to 13 nM with Rat GIP receptor (rat) [6] and 38 nM in [4]. For the same molecule, the Emax of cAMP accumulation in transfected COS-7 cells amounted to 64 with Rat GIP receptor (rat) [6], 73 in test [3] and 57 in test [4].

For orientation: IC50 means the concentration that gives 50% inhibition. As to “GIP(3–42): naturally occurring GIP metabolite (EGTFISDYSIAMDKIHQQDFVNWLLAQKGKKNDWKHNITQ; Gastric inhibitory polypeptide; UniProt P09681 54-93, looked up, fragment)”, the IC50 at GIP receptor is 22 nM. Further, in the test on pigs, the “antagonistic effect in vivo” value is reported as “no antagonistic effect could be demonstrated”.

For the molecule `N=C(N)NCCC[C@H](N)C(=O)O` [arginine], in the test on perfused rat pancreas, the glucagon secretion entry is on record as “induced secretion of the respective hormones”, the insulin secretion result is given as “induced secretion of the respective hormones” and the somatostatin secretion result is on record as “induced secretion of the respective hormones”. Besides, in test [7], the glucagon secretion entry is “induced secretion of the respective hormones”, the insulin secretion result is “induced secretion of the respective hormones” and the somatostatin secretion result was “induced secretion of the respective hormones”.

Consider “Mouse (Pro3)GIP (from UniProt P48756 44-85) (peptide)”, for which the logIC50 was -8.1 in the test with Rat GIP receptor (rat) [8], -8.1 in test [1] and -8.3 in test [2]. The EC50 of cAMP accumulation in transfected COS-7 cells with Rat GIP receptor (rat) [6] was 15 nM; in test [4] it was 29 nM. For the same molecule, the Emax of cAMP accumulation in transfected COS-7 cells with Rat GIP receptor (rat) [6] was 61; in [3], 67; in test [4], 59.

As usually defined, the Ki is the dissociation constant of the complex between target and ligand, obtained from inhibition or displacement. A higher Ki goes with a looser hold on the target. For YAEGTFISDYSIAMDKIRQQDFVNWLLAQRGKKSDWKHNITQ (ligand) [Mouse GIP (glucose-dependent insulinotropic polypeptide, GIP(1-42))], the “Emax of cAMP accumulation in transfected COS-7 cells” value (shortened to “Emax … in transfected COS-7 cells”) in the test with Mouse GIP receptor [9] amounted to 156; in the test with Rat GIP receptor [10], 120; with Human GIP receptor [11], 99. Further, the logIC50 with Rat GIP receptor [12] was -8.9; with Human GIP receptor [13] it was -8.7. The molecule also registered a Ki with Human GIP receptor [13] of 2 nM.

For the molecule YAEGTFISDYSIAMDKIHQQDFVNWLLAQKGKKNDWKHNITQ (ligand) [Human GIP (glucose-dependent insulinotropic polypeptide, GIP(1-42))], in the test with Rat GIP receptor [10], the “Emax … in transfected COS-7 cells” value amounted to 100.

On to YAEGTFISDYSIAMDKIRQQDFVNWLLAQKGKKNDWKHNLTQ (ligand) [Rat GIP (glucose-dependent insulinotropic polypeptide, GIP(1-42))], for which the “Emax … in transfected COS-7 cells” value with Mouse GIP receptor [9] was determined as 144; with Rat GIP receptor [10], 117; with Human GIP receptor [11], 113. Also, the logIC50 is -9.6 in the test with Mouse GIP receptor [14] and -8.9 with Human GIP receptor [13].

Values taken from PMC4737396 (British Journal of Pharmacology, 2015).
